Key:
[1] = target: human VLDLR LA5 fused to human IgG1 Fc (human) (UniProt P98155); test: BLI
[2] = target: human VLDLR LA3 fused to human IgG1 Fc (human) (UniProt P98155); test: BLI
[3] = target: human VLDLR LA2 fused to human IgG1 Fc (human) (UniProt P98155); test: BLI
[4] = target: human VLDLR LA1 fused to human IgG1 Fc (human) (UniProt P98155); test: BLI
[5] = target: WEEV strain California virus-like particles (Western equine encephalitis virus, strain California); test: ELISA
[6] = target: WEEV California E1 domain III fused to human IgG1 Fc (Western equine encephalitis virus, strain California); test: BLI

Q: Which Kd [1] does the source give for “WEEV strain California virus-like particles (complex)” here?
A: The Kd was 0.37 nM.

Q: And the Kd [2]?
A: Its Kd is 6.09 nM.

Q: And the Kd [3]?
A: The Kd was 1.59 nM.

Q: What about the Kd [4] of the same substance?
A: Its Kd is 0.11 nM.

Q: For “human VLDLR LA1-2 fused to human IgG1 Fc (from UniProt P98155-1 28-113) (Fc fusion)”, which Kd [5] is on record?
A: The Kd was 1630 nM.

Q: For “human VLDLR LA1-3 fused to human IgG1 Fc (from UniProt P98155-1 28-152) (Fc fusion)”, which Kd [5] is on record?
A: Its Kd is 470 nM.

Q: Which Kd [5] does the source give for “human VLDLR LA1-5 fused to human IgG1 Fc (from UniProt P98155-1 28-236) (Fc fusion)” here?
A: The Kd was 410 nM.

Q: “human VLDLR LA3 fused to human IgG1 Fc (from UniProt P98155-1 111-151) (Fc fusion)” was tested. Which Kd [5] did it give?
A: Its Kd is 10900 nM.

Q: Which Kd [6] does the source give for “human VLDLR LA3 with 6x His tag (from UniProt P98155-1 111-151) (domain or fragment)” here?
A: Its Kd is 830 nM.

Q: How did the Kd [5] turn out when “human VLDLR LA5 fused to human IgG1 Fc (from UniProt P98155-1 191-236) (Fc fusion)” was run?
A: Its Kd is 7770 nM.

Q: How did the Kd [6] turn out when “human VLDLR LA5 with 6x His tag (from UniProt P98155-1 191-236) (domain or fragment)” was run?
A: Its Kd is 808 nM.

Q: With “human VLDLR ligand-binding domain (LA1-8) fused to human IgG1 Fc (from UniProt P98155-1 28-355) (Fc fusion)” as the substance, how does the Kd [5] read?
A: The Kd was 1210 nM.

Reference: paper PMC12800238
